Assay [1] concerns the target T1, porcine kidney aminopeptidase N (APN), purified (Sigma) (porcine (Sus scrofa), UniProt P15145 33-963, biotinylated (1:3 ratio) when used as ligand in BLI).
T1 construct: Used coated in ELISA and biotinylated on SAX biosensors in BLI; also called purified kidney APN; porcine APN
T1 sequence: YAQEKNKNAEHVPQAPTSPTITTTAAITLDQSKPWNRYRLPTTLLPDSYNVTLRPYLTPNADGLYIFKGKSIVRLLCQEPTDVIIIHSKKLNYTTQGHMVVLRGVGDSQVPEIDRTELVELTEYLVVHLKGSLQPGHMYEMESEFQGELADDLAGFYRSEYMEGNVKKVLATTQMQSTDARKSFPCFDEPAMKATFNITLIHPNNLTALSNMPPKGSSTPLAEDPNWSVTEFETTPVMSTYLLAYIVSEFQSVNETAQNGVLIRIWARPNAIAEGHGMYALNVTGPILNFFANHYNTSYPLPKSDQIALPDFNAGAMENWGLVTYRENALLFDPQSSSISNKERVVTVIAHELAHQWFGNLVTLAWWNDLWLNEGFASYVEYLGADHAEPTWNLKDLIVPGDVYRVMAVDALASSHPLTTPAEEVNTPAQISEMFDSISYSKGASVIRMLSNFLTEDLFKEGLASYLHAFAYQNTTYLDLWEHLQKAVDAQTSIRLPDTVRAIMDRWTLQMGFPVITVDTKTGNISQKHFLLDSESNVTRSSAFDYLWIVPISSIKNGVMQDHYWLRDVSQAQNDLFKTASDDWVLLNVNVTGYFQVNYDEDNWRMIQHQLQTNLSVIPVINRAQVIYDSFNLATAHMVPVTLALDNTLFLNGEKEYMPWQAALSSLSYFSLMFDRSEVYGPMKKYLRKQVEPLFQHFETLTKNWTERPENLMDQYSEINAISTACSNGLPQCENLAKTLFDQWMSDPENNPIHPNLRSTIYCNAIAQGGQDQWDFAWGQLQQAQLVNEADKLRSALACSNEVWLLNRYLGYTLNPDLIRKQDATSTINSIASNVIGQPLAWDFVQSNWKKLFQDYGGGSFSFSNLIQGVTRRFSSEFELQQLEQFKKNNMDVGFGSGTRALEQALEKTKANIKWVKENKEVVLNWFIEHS
The assay can be described thus: BLI (Octet RED96), biotinylated porcine APN on SAX biosensor, mAb at 100 nM, 1:1 local full fit.

Assay [2] deals with T1, porcine kidney aminopeptidase N (APN), …. The assay can be described thus: bio-layer interferometry, biotinylated porcine APN on SAX biosensor, series of analyte concentrations (not labelled on the sheet). On the technique in general: BLI is a label-free optical method that tracks binding on a fibre tip over time.

B1: α-APN-mIgG1 (clone IMM013), APN-specific mouse IgG1 monoclonal antibody (antibody)
heavy: QAYLQQSGAELVRSGASVKMSCKASGYTFTSYNMHWVKQTPGQGLEWIGYIYPGNGDINYNQKFKGKATLTADTSSNTAYMQISSLTSEDSAVYFCARGGVFDYWGQGTTLIVSSAKTTPPSVYPLAPGSAAQTNSMVTLGCLVKGYFPEPVTVTWNSGSLSSGVHTFPAVLQSDLYTLSSSVTVPSSTWPSETVTCNVAHPASSTKVDKKIVPRDCGCKPCICTVPEVSSVFIFPPKPKDVLTITLTPKVTCVVVDISKDDPEVQFSWFVDDVEVHTAQTQPREEQFNSTFRSVSELPIMHQDWLNGKEFKCRVNSAAFPAPIEKTISKTKGRPKAPQVYTIPPPKEQMAKDKVSLTCMITDFFPEDITVEWQWNGQPAENYKNTQPIMDTDGSYFVYSKLNVQKSNWEAGNTFTCSVLHEGLHNHHTEKSLSHSPGK
light: QIVLTQSPAIVSASPGEKVTITCSGSSSVNYMHWFQQKPGTSPKLWIYSTSNLASGVPGRFSGSGSGTSYSLTISRMEAEDAATYYCQQRTSYPYTFGGGTKLEIKRADAAPTVSIFPPSSEQLTSGGASVVCFLNNFYPKDINVKWKIDGSERQNGVLNSWTDQDSKDSTYSMSSTLTLTKDEYERHNSYTCEATHKTSTSPIVKSFNRNEC
notes: Purified from hybridoma supernatant by protein G; also called IMMO13; α-APN mAb (clone IMM013)
B1: the Kd (usually the free concentration of one partner at which half of the binding sites on the other are occupied at equilibrium, for simple one-to-one binding) in assay [1] turned out to be 1.6 nM; in assay [2], 1.4 nM.

B2: α-APN-mIgG1-FedF fusion construct (clone IMM013 mouse IgG1 with FedF15-165 fused to the heavy chain) (other)
heavy: QAYLQQSGAELVRSGASVKMSCKASGYTFTSYNMHWVKQTPGQGLEWIGYIYPGNGDINYNQKFKGKATLTADTSSNTAYMQISSLTSEDSAVYFCARGGVFDYWGQGTTLIVSSAKTTPPSVYPLAPGSAAQTNSMVTLGCLVKGYFPEPVTVTWNSGSLSSGVHTFPAVLQSDLYTLSSSVTVPSSTWPSETVTCNVAHPASSTKVDKKIVPRDCGCKPCICTVPEVSSVFIFPPKPKDVLTITLTPKVTCVVVDISKDDPEVQFSWFVDDVEVHTAQTQPREEQFNSTFRSVSELPIMHQDWLNGKEFKCRVNSAAFPAPIEKTISKTKGRPKAPQVYTIPPPKEQMAKDKVSLTCMITDFFPEDITVEWQWNGQPAENYKNTQPIMDTDGSYFVYSKLNVQKSNWEAGNTFTCSVLHEGLHNHHTEKSLSHSPGKGGGGSGGGGSGGGGSNSSASSAQVTGTLLGTGKTNTTQMPALYTWQHQIYNVNFIPSSSGTLTCQAGTILVWKNGRETQYALECRVSIHHSSGSINESQWGQQSQVGFGTACGNKKCRFTGFEISLRIPPNAQTYPLSSGDLKGSFSLTNKEVNWSASIYVPAIAK
light: B1 light
notes: also called FedF-linked α-APN-mIgG1; aAPN-mIgG1-FedF
Take B2: the Kd in assay [2] turned out to be 5.1 nM.

The values are drawn from patent US20240392036A1 (UNIVERSITEIT GENT, published 2024).
